From patent publication US20190147972A1, “BIOMOLECULE DESIGN MODEL AND USES THEREOF” (University of Notre Dame du Lac, priority 2016, published 2019) come the findings set out here.

Assay [1] addresses MART126(27L)-35 pG6-Sarc/HLA-A2 (UniProt Q16655). Kind of assay: SPR steady state, TCR immobilised, pMHC injected.
Assay [2] has the same target. Kind of assay: SPR steady state (Biacore 3000), TCR immobilised, pMHC injected; relative to the unsubstituted ELA peptide.
Assay [3] has as its target MART126(27L)-35 pE1Q/HLA-A2 (UniProt Q16655). The description is as above.
Assay [4] has as its target MART126(27L)-35 pT9A/HLA-A2 (UniProt Q16655). Described as above.
The target in assay [5] is MART126(27L)-35 pI5E/HLA-A2 (UniProt Q16655). The assay is described as above.
Assay [6] has as its target MART126(27L)-35 pE1A/HLA-A2 (UniProt Q16655). The assay is described as above.
The target in assay [7] is MART126(27L)-35 pE1F/HLA-A2 (UniProt Q16655). The description is as above.
The target in assay [8] is MART126(27L)-35 pE1D/HLA-A2 (UniProt Q16655). Described as above.
The next assay deals with MART126(27L)-35/HLA-A2 (UniProt Q16655). Kind of assay: SPR steady state (Biacore 3000), TCR immobilised, pMHC injected; relative to wild type.
For another assay, the system named is DMF5 TCR. As to the kind of experiment: SPR binding of MART126(27L)-35 peptide variants/HLA-A2 to DMF5 TCR. The following applies: ELA peptide substitution vs native peptide, SPR steady state, 25° C. As to the method:
Briefly, the TCR a and b chains, the HLA-A2 heavy chain, and b2-microglobulin (b2m) were generated in Escherichia coli as inclusion bodies, which were isolated and denatured in 8 M urea. TCR a and b chains were diluted in TCR refolding buffer (50 mM Tris (pH 8), 2 mM EDTA, 2.5 M urea, 9.6 mM cysteamine, 5.5 mM cystamine, 0.2 mM PMSF) at a 1:1 ratio. HLA-A2 and b2m were diluted in MHC refolding buffer (100 mM Tris (pH 8), 2 mM EDTA, 400 mM L-arginine, 6.3 mM cysteamine, 3.7 mM cystamine, 0.2 mM PMSF) at a 1:1 ratio in the presence of excess peptide. TCR and pMHC complexes were incubated for 24 h at 4° C. Afterward, complexes were desalted by dialysis at 4° C. and room temperature respectively, then purified by anion exchange followed by size-exclusion chromatography. Refolded protein absorptions at 280 nm were measured spectroscopically and concentrations determined with appropriate extinction coefficients. Mutations in TCR a and b chains were generated by whole-plasmid mutagenesis and confirmed by sequencing. Peptides were synthesized and purified commercially.
Surface plasmon resonance: Surface plasmon resonance experiments were performed with a Biacore 3000 instrument using CMS sensor chips as previously described^15. In all studies, TCR was immobilized to the sensor chip via standard amine coupling and pMHC complex was injected as analyte. Studies were performed at 25° C. in 20 mM HEPES (pH 7.4), 150 mM NaCl, 0.005% Nonidet P-20. All studies were steady-state experiments measuring RU vs. concentration of injected analyte, and were performed with TCRs coupled onto the sensor chip at 400-2000 response units. Injected pMHC spanned a concentration range of 0.1-150 μM at flow rates of 5 μl/min. Data were processed with BioEvaluation 4.1 and fit using a 1:1 binding model utilizing MATLAB 2015b.
Next, eight MART126(27L)-35 peptide variants with a broad range of complex scores were selected for experimental testing with DMF5. A peptide was also examined with a non-standard sarcosine (N-methyl glycine) substituted for Gly6 of the peptide to help test the implications of treating structured water explicitly in the DMF5 interface as discussed above and shown in FIG. 5.

Take DMF5 TCR (wild type, soluble): the fold affinity enhancement over the unsubstituted peptide in [1] came to 3 fold. Further, the ΔΔG° in assay [2] is -0.58 kcal/mol; in assay [3] it was 1 kcal/mol; in assay [4], 1.6 kcal/mol; in [5], 3.07 kcal/mol; in assay [6], 0.06 kcal/mol; in assay [7], 2.26 kcal/mol. The same substance registered a ΔΔG° in assay [8] of 1.3 kcal/mol.
On to DMF5 TCR T54αI, for which, in the assay with MART126(27L)-35/HLA-A2, the ΔΔG° was found to be 0.33 kcal/mol.
On to “PE1Q: MART126(27L)-35 (ELA) peptide with E1Q substitution, presented by HLA-A2 (QLAGIGILTV; MART-1 26-35 peptide; UniProt Q16655 26-35, looked up, variant A27L E26Q)”, for which the “ΔΔG°” value in the assay with DMF5 TCR is reported as 1.0 kcal/mol.
On the same count and under the same terms, the value for “pE1D: MART126(27L)-35 (ELA) peptide with E1D substitution, presented by HLA-A2 (DLAGIGILTV; MART-1 26-35 peptide; UniProt Q16655 26-35, looked up, variant A27L E26D)” was 1.3 kcal/mol; that for “pE1F: MART126(27L)-35 (ELA) peptide with E1F substitution, presented by HLA-A2 (FLAGIGILTV; MART-1 26-35 peptide; UniProt Q16655 26-35, looked up, variant A27L E26F)” was 2.26 kcal/mol.
Same read-out and setting: the value for “pI5E: MART126(27L)-35 (ELA) peptide with I5E substitution, presented by HLA-A2 (ELAGEGILTV; MART-1 26-35 peptide; UniProt Q16655 26-35, looked up, variant A27L I30E)” was 3.07 kcal/mol; that for “pT9W: MART126(27L)-35 (ELA) peptide with T9W substitution, presented by HLA-A2 (ELAGIGILWV; MART-1 26-35 peptide; UniProt Q16655 26-35, looked up, variant A27L T34W)” was over 3 kcal/mol.
